Source: patent US9090686B2, “Antibodies for the treatment of HIV” (Pierre Fabre Medicament, priority 2009, dated 2015)

How the values were obtained:
[1] = tested on: HIV-1 primary isolate 89.6 (dual X4/R5 virus); assay: Neutralization assay, multiple rounds of replication on primary PBMC, isolate 89.6; type: cell-based; conditions: 90% decrease of viral titer
Description: This assay that combines serial dilutions of c515H7 Mab or Maraviroc or combination of both with serial dilutions of virus, analyzes multiple rounds of infection on PBMC (peripheral blood mononuclear cells). Briefly, quadruplicate 25-μl aliquots of serial dilutions (twofold) of c515H7 Mabs or Maraviroc or combination of both were each incubated with 25 μl of serial dilutions of virus in prehydrated 96-well filter plates (1.25-μm pore size, Durapor Dv; Millipore, Molsheim, France). A control titration of the virus (25 μl of RPMI replacing the diluted c515H7 Mabs or Maraviroc) was performed on the same plate as the titrations in the presence of dilutions of the c515H7 Mabs or Maraviroc or combination of both. After 1 h at 37° C., 25 μl of PHA-stimulated PBMC at a concentration of 4×10^6 cells/ml (pool of PHA activated PBMC from five healthy donors) was added to achieve a 75-μl final culture volume of RPMI, 10% fetal calf serum (FCS), and 20 IU of interleukin-2 (IL-2) per ml (R&D System). After 24 h at 37° C., 100 μl of the same culture medium was added. Two washings (200 μl of RPMI each) were performed by filtration on day 4 to remove the c515H7 Mabs and Maraviroc, and 200 μl of fresh culture medium was added. On day 7, the presence of p24 in the culture supernatants was measured by ELISA and compared to that of the negative controls (cultures infected with dilutions of virus and maintained in the presence of 10^−6 M zidovudine [AZT]) to determine positive wells. […]
(§1) This assay that combines serial dilutions of hz515H7 Mab or Maraviroc or combination of both with serial dilutions of virus, analyzes multiple rounds of infection on PBMC (peripheral blood mononuclear cells). […] On day 7, the presence of p24 in the culture supernatants was measured by ELISA and compared to that of the negative controls (cultures infected with dilutions of virus and maintained in the presence of 10^−6 M zidovudine [AZT]) to determine positive wells. […]

[2] = tested on: HIV-1 primary isolate UG93067 (dual X4/R5 virus); assay: Neutralization assay, multiple rounds of replication on primary PBMC, isolate UG93067; type: cell-based
Description: as §1, with “c515H7” for “hz515H7”, “cells). Briefly, quadruplicate 25-μl aliquots of serial dilutions (twofold) of c515H7 Mabs or Maraviroc or combination of both were each incubated with 25 μl of serial dilutions of virus in prehydrated 96-well filter plates (1.25-μm pore size, Durapor Dv; Millipore, Molsheim, France).” for “cells).”
as §1

B1: c515H7: chimeric antibody 515H7: murine variable domains fused to human Ckappa and IgG1/IgG2/IgG4 constant domains; isotype tested not stated (antibody, V domains shown)
VH: EVNLVESGGGLVQPGGSLRLSCATSGFTFTDNYMSWVRQPPGKALEWLGFIRNKANGYTTDYSASVRGRFTISRDNSQSILYLQMNALRAEDSATYYCARDVGSNYFDYWGQGTTLTVSS
VL: DIVMSQSPSSLAVSAGEKVTMSCKSSQSLFNSRTRKNYLAWYQQKPGQSPKLLIYWASARDSGVPARFTGSGSETYFTLTISRVQAEDLAVYYCMQSFNLRTFGGGTKLEIK
- IC90 of c515H7 with addition of Maraviroc ([1]; Maraviroc at 2 μg/ml added): 0.2 µg/mL
- IC90 ([1]; single agent, multiple rounds, day 7 p24 ELISA): 2 µg/mL
- reduction of virus titer by combination of c515H7 and Maraviroc ([2]; 10 μg/ml of each, only the combination reached it): 90%
- inhibitory activity of the Mab compared with Maraviroc ([2]; virus UG93067, PBMC): similar
